Consider four molecules from article PMC6411835.

Series [1] deals with T1, Zip2(499-704);Spo16 (Saccharomyces cerevisiae;Saccharomyces …, UniProt P53061;P17122 499-704;1-198, |).
T1 sequence 1: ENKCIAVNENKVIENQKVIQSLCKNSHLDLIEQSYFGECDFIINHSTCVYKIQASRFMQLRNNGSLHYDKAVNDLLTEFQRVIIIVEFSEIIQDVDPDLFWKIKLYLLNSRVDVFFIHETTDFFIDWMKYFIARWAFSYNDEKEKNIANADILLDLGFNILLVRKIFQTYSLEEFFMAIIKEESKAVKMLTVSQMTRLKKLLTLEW
T1 sequence 2: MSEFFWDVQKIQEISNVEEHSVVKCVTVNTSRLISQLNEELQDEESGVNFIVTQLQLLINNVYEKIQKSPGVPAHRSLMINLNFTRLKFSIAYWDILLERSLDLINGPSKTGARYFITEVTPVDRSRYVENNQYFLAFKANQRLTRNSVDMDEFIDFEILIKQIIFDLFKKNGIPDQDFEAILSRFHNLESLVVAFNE
In words: EMSA.

The target in series [2] is T1, Zip2(499-704);Spo16. Put plainly: ITC.
Series [3] has as its target T1, Zip2(499-704);Spo16. In words: EMSA. This is another data set of the same source.

B1: 40-bp dsDNA (dsDNA)
DNA 1: CCTTTCGAAGACTCATCACGGAGAGCAGACATCATCTGGC
DNA 2: GCCAGATGATGTCTGCTCTCCGTGATGAGTCTTCGAAAGG
Take B1: in the series with Zip2(499-704);Spo16 [1], binding was characterised by a dissociation constant (Kd) of 14 µM.

B2: Holliday Junction (HJ) (structured_DNA)
DNA 1: CCTTTCGAAGACTCATCACGGAGAGCAGACATCATCTGGC
DNA 2: ATATATGATTCTAATAAGATCGTGATGAGTCTTCGAAAGG
DNA 3: GCCAGATGATGTCTGCTCTCGTCGTAATGTAAGTGTATGC
DNA 4: GCATACACTTACATTACGACATCTTATTAGAATCATATAT
In the case of B2, the dissociation constant Kd in the series with Zip2(499-704);Spo16 [2] was approximately 1 µM; with Zip2(499-704);Spo16 [3], 5 µM.

B3: 3'-overhang DNA (mixed)
DNA 1: CCTTTCGAAGACTCATCACGGAGAGCAGACATCATCTGGC
DNA 2: CGTGATGAGTCTTCGAAAGG
For B3, the affinity with Zip2(499-704);Spo16 [1], expressed as Kd, was 17 µM.

B4: 5'-overhang DNA (mixed)
DNA 1: CCTTTCGAAGACTCATCACGGAGAGCAGACATCATCTGGC
DNA 2: GCCAGATGATGTCTGCTCTC
B4: the dissociation constant Kd with Zip2(499-704);Spo16 [1] was found to be 9 µM.

The Kd is a measure of binding affinity in units of concentration. A high value points to a looser complex.
